Measurements reported in the supplement of paper PMC10567573.
± gives the standard deviation.

Assay: protein stability index of a GFP-peptide fusion (GPS, HEK-293T) (PSI 1-6); higher = more stable
Details: c terminus: a fixed tail appended
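Note: 24-mer peptide tiles fused after GFP, lentivirally expressed, FACS-sorted into six equal bins by GFP/DsRed ratio, decoded by Illumina sequencing, PSI is the read-weighted mean bin number.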

Sequence | protein stability index (treatment: DMSO) | protein stability index (treatment: MLN4924 1 uM, 8 h)
ILTLTMISLFFLIIYMGSFMLMLL [CDS1] | 2.4 ± 0.65 | 2.35 ± 0.39
KAPSKLGLIISGPILQEGMDEEKL [DLC1] | 4.47 ± 0.38 | 4.54 ± 0.36
ASSSRSVRTTRGKRKRVDVEESEA [LMNB1] | 5.22 ± 0.39 | 5.49 ± 0.29
HRAVASRSEEAVQVLIKHSADVNA [ANKRD44] | 4.5 ± 0.28 | 4.47 ± 0.31
LGCYAVYSLLYLEHKGWYSWVLSM [CLPTM1] | 3.04 ± 0.42 | 3.27 ± 0.65
IKRTIRVLDVNNQSFREQEEPSNK [NET1] | 3.68 ± 0.42 | 3.93 ± 0.26
YLAMLERFQDGDNILEKEVLPPIH [FEM1B] | 2.73 ± 0.19 | 2.93 ± 0.24
GGNHFRGTSDYDDVLSCEYYSPIL [KLHL13] | 2.81 ± 0.096 | 2.77 ± 0.18
ELESLSAIEAELEKVAHQLQALRR [CHGA] | 4.74 ± 0.22 | 4.97 ± 0.4
TEPDYKSKDWVFLNYTYKRFEGLT [STK38L] | 1.92 ± 0.19 | 2.39 ± 0.59
RLSVPRDSACDESSCIPKAFGNPK [IRX6] | 4.84 ± 0.18 | 4.89 ± 0.19
GGRKGTAIELQGHNDRVQALSYAQ [WDFY2] | 4.28 ± 0.21 | 4.38 ± 0.19
FLPDLLIFQMVIICLMCVHSLERA [SMG5] | 3.28 ± 0.47 | 2.59 ± 0.5
DLGASSLHVNGESLEMDSDEDDSE [EHMT1] | 5.52 ± 0.15 | 5.62 ± 0.14
LSEVKPPPPPPPAQTFLFQGQPVV [TRADD] | 3.89 ± 0.38 | 4.07 ± 0.2
NLLLTYLIVTSLLLLPGLNQHGII [ARL6IP1] | 3.32 ± 0.47 | 3.25 ± 0.13
LLDIKTRLEQEIATYRSLLEGQDA [KRT13] | 3.45 ± 0.19 | 3.51 ± 0.26
KLALDMEISAYRKLLQGEEERLKL [LMNB1] | 3.24 ± 0.23 | 3.28 ± 0.36
RLLGSARPELGAALGIYGAPYAAA [IRX6] | 2.27 ± 0.42 | 2.44 ± 0.47
YLFWEFATDNYDIGFGVYFEWTDS [ACBD3] | 3.14 ± 0.85 | 1.93 ± 0.72
NYFSAMYSSEDSTLASVPPAATFG [ELF3] | 3.06 ± 0.3 | 3.17 ± 0.43
LYLIAKRNRKLKCTFSLTHPANRS [SLC22A15] | 2.49 ± 0.41 | 2.41 ± 0.17
